These results are taken from publication PMC6515519, “Structure–Activity Relationships of the Tetrapeptide Ac-His-Arg-(pI)DPhe-Tic-NH2 at the Mouse Melanocortin Receptors: Modification at the (pI)DPhe Position Leads to mMC3R Versus mMC4R Selective Ligands” (Molecules, 2019).

The test system of one assay is MC4R. The settings on record: previous studies; cited from earlier work.
Another assay deals with MC3R. The settings on record: previous studies; cited from earlier work.
The target in assay [1] is mouse melanocortin-1 receptor (mouse) (UniProt Q01727).
The target of assay [2] is mouse melanocortin-4 receptor (mouse) (UniProt P56450).
Assay [3] addresses mouse melanocortin-3 receptor (mouse) (UniProt P33033).
Assay [4] addresses mouse melanocortin-5 receptor (mouse) (UniProt P41149).

Chain of mouse melanocortin-4 receptor (mouse) (P56450 whole entry): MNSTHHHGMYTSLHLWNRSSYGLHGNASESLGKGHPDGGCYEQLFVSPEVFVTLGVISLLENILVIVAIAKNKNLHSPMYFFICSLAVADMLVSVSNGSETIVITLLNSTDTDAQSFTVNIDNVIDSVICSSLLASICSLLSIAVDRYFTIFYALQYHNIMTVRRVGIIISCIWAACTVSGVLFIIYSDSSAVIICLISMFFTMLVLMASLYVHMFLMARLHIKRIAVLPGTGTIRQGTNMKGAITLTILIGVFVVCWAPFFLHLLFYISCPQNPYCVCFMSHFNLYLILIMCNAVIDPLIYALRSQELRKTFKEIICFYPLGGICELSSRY
Chain of mouse melanocortin-1 receptor (mouse) (Q01727 whole entry): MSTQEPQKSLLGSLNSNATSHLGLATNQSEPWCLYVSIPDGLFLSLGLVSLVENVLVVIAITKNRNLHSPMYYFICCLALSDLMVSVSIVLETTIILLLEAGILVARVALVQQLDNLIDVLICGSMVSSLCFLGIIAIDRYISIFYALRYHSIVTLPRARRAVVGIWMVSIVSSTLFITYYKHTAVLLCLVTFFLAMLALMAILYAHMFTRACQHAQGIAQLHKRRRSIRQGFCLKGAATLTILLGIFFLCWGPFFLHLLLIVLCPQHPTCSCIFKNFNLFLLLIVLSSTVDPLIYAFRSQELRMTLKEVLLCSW
Chain of mouse melanocortin-3 receptor (mouse) (P33033 whole entry): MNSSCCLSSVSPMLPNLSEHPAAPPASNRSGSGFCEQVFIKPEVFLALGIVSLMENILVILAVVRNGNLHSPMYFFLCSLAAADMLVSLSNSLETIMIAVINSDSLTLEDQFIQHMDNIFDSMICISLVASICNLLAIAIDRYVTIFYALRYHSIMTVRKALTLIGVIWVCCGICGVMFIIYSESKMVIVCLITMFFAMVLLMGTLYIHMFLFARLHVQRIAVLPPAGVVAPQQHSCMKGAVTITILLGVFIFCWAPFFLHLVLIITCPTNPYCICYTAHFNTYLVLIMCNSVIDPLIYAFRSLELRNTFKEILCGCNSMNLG
Chain of mouse melanocortin-5 receptor (mouse) (P41149 whole entry): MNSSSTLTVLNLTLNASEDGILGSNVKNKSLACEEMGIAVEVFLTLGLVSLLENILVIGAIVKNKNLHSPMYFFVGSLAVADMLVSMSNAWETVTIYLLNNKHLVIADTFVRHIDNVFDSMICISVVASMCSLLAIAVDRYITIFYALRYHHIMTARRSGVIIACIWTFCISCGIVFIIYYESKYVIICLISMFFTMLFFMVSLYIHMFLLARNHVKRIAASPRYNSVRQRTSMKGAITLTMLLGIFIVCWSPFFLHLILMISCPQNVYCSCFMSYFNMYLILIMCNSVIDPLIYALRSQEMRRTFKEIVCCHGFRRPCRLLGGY

On to Ac-His-(pI)DPhe-Arg-Trp-NH2, for which the “MC4R agonist activity” value in the assay with MC4R is given as “full agonist”. Moreover, the “MC3R activity” value with MC3R is “partial agonist with antagonist activity”.
Turning to NDP-MSH (peptide), the agonist EC50, cAMP AlphaScreen assay in HEK293 cells stably expressing mMC1R in assay [1] is 0.009 nM. Also, in assay [2], the agonist EC50, β-galactosidase cAMP reporter assay in HEK293 cells stably expressing mMC4R amounted to 0.32 nM. In addition, in assay [3], the agonist EC50, β-galactosidase cAMP reporter assay in HEK293 cells stably expressing mMC3R was 0.52 nM. This substance also returned an agonist EC50, β-galactosidase cAMP reporter assay in HEK293 cells stably expressing mMC5R in assay [4] of 3.4 nM.
